Three molecules from PMC6620098 (Science Advances, 2019) can be followed below.

B1: Elp2 (endogenous, in the Elp123 subcomplex) (natural protein, UniProt P42935 1-788, looked up)
chain: MVECITPEAIFIGANKQTQVSDIHKVKKIVAFGAGKTIALWDPIEPNNKGVYATLKGHEAEVTCVRFVPDSDFMVSASEDHHVKIWKFTDYSHLQCIQTIQHYSKTIVALSALPSLISVGCADGTISIWRQNIQNDEFGLAHEFTIKKGFFYPLCLSLSKVEEKKYLLAIGGTNVNVFIASFILSDSGIEKCRVVAELEGHEDWVKSLAFRHQETPGDYLLCSGSQDRYIRLWRIRINDLIDDSEEDSKKLTLLSNKQYKFQIDDELRVGINFEALIMGHDDWISSLQWHESRLQLLAATADTSLMVWEPDETSGIWVCSLRLGEMSSKGASTATGSSGGFWSCLWFTHERMDFFLTNGKTGSWRMWATKDNIICDQRLGISGATKDVTDIAWSPSGEYLLATSLDQTTRLFAPWIYDASGRKREIATWHEFSRPQIHGYDMICVETVTDTRFVSGGDEKILRSFDLPKGVAGMLQKFVGIQFEEKSEMPDSATVPVLGLSNKAGEDDANEDDEEEEGGNKETPDITDPLSLLECPPMEDQLQRHLLWPEVEKLYGHGFEITCLDISPDQKLIASACRSNNVQNAVIRIFSTENWLEIKPALPFHSLTITRLKFSKDGKFLLSVCRDRKWALWERNMEDNTFELRFKNEKPHTRIIWDADWAPLEFGNVFVTASRDKTVKVWRHQKEPADDYVLEASIKHTKAVTAISIHDSMIREKILISVGLENGEIYLYSYTLGKFELITQLNEDITPADKITRLRWSHLKRNGKLFLGVGSSDLSTRIYSLAYE
B2: Elp1-3xFLAG (endogenous, in the Elp123 subcomplex) (natural protein, S. cerevisiae, UniProt Q06706 1-1349, looked up)
chain: MVEHDKSGSKRQELRSNMRNLITLNKGKFKPTASTAEGDEDDLSFTLLDSVFDTLSDSITCVLGSTDIGAIEVQQFMKDGSRNVLASFNIQTFDDKLLSFVHFADINQLVFVFEQGDIITATYDPVSLDPAETLIEIMGTIDNGIAAAQWSYDEETLAMVTKDRNVVVLSKLFEPISEYHLEVDDLKISKHVTVGWGKKETQFRGKGARAMEREALASLKASGLVGNQLRDPTMPYMVDTGDVTALDSHEITISWRGDCDYFAVSSVEEVPDEDDETKSIKRRAFRVFSREGQLDSASEPVTGMEHQLSWKPQGSLIASIQRKTDLGEEDSVDVIFFERNGLRHGEFDTRLPLDEKVESVCWNSNSEALAVVLANRIQLWTSKNYHWYLKQELYASDISYVKWHPEKDFTLMFSDAGFINIVDFAYKMAQGPTLEPFDNGTSLVVDGRTVNITPLALANVPPPMYYRDFETPGNVLDVACSFSNEIYAAINKDVLIFAAVPSIEEMKKGKHPSIVCEFPKSEFTSEVDSLRQVAFINDSIVGVLLDTDNLSRIALLDIQDITQPTLITIVEVYDKIVLLRSDFDYNHLVYETRDGTVCQLDAEGQLMEITKFPQLVRDFRVKRVHNTSAEDDDNWSAESSELVAFGITNNGKLFANQVLLASAVTSLEITDSFLLFTTAQHNLQFVHLNSTDFKPLPLVEEGVEDERVRAIERGSILVSVIPSKSSVVLQATRGNLETIYPRIMVLAEVRKNIMAKRYKEAFIVCRTHRINLDILHDYAPELFIENLEVFINQIGRVDYLNLFISCLSEDDVTKTKYKETLYSGISKSFGMEPAPLTEMQIYMKKKMFDPKTSKVNKICDAVLNVLLSNPEYKKKYLQTIITAYASQNPQNLSAALKLISELENSEEKDSCVTYLCFLQDVNVVYKSALSLYDVSLALLVAQKSQMDPREYLPFLQELQDNEPLRRKFLIDDYLGNYEKALEHLSEIDKDGNVSEEVIDYVESHDLYKHGLALYRYDSEKQNVIYNIYAKHLSSNQMYTDAAVAYEMLGKLKEAMGAYQSAKRWREAMSIAVQKFPEEVESVAEELISSLTFEHRYVDAADIQLEYLDNVKEAVALYCKAYRYDIASLVAIKAKKDELLEEVVDPGLGEGFGIIAELLADCKGQINSQLRRLRELRAKKEENPYAFYGQETEQADDVSVAPSETSTQESFFTRYTGKTGGTAKTGASRRTAKNKRREERKRARGKKGTIYEEEYLVQSVGRLIERLNQTKPDAVRVVEGLCRRNMREQAHQIQKNFVEVLDLLKANVKEIYSISEKDRERVNENGEVYYIPEIPVPEIHDFPKSHIVDF

Common to all, as to experiment: cryo-EM structure
In data set [1] the target is B2.
The data set “cryo-EM structure” deals with the molecule itself.
Data set [2] concerns the target B1.

Take B1: the binding result in data set [1] is “binds”.

The stoichiometry N is a count of units in the complex or per binding partner. For B2, the “stoichiometry N” value in “cryo-EM structure” was found to be 2.

B3: Elp3 (endogenous, in the Elp123 subcomplex) (enzyme, UniProt Q02908 1-557, looked up)
chain: MARHGKGPKTNKKKLAPEKERFIQCCADITLELTDSLTSGTTREINLNGLITKYSKKYKLKQQPRLTDIINSIPDQYKKYLLPKLKAKPVRTASGIAVVAVMCKPHRCPHIAYTGNICVYCPGGPDSDFEYSTQSYTGYEPTSMRAIRARYDPYEQARGRVEQLKQLGHSIDKVEYVLMGGTFMSLPKEYREDFIVKLHNALSGFNGNDIDEAILYSQQSLTKCVGITIETRPDYCTQTHLDDMLKYGCTRLEIGVQSLYEDVARDTNRGHTVRSVCETFAVSKDAGYKVVSHMMPDLPNVGMERDIEQFKEYFENPDFRTDGLKIYPTLVIRGTGLYELWKTGRYKSYSANALVDLVARILALVPPWTRIYRVQRDIPMPLVTSGVDNGNLRELALARMKDLGTTCRDVRTREVGIQEVHHKVQPDQVELIRRDYYANGGWETFLSYEDPKKDILIGLLRLRKASKKYTYRKEFTSQRTSIVRELHVYGSVVPLHSRDPRKFQHQGFGTLLMEEAERIAKEEHGSEKISVISGVGVRNYYGKLGYELDGPYMSKRI
Consider B3, for which the binding result in data set [1] and in data set [2] was “binds” throughout.
